The record followed here is patent publication US20130109846A1 (published 2013).

B1: 1h-99-2112 (other)
VH: EVQLLESGGGLVQPGGSLRLSCAASGFTFKDKNMSWARQAPGKGLEWVSWIEAPGVQTFYADSVRGRFTISRDNSKNTLYLQMNSLRAEDTAVYYCARSPFGPLYGFDYRGQGTLVTVSS
B2: 1h-99-2113 (other)
VH: EVQLLESGGGLVQPGGSLRLSCAASGFTFKDKNMSWARQAPGKGLEWVSWIEASGVQTFYADSVKGRFTISRDNSKNTLYLQMNSLRAEDTAVYYCAKSPFGPLYGFDYRGQGTLVTVSS
B3: 1h-99-2114 (other)
VH: EVQLLESGGGLVQPGGSLRLSCAASGFTFKDKNMSWARQAPGKGLEWVSWIEAIGVQTFYADSVKGRFTISRDNSKNTLYLQMNSLRAEDTAVYYCAKSPFGPLYGFDYRGQGTLVTVSS
B4: 1h-99-2115 (other)
VH: EVQLLESGGGLVQPGGSLRLSCAASGFTFKDKNMSWVRQAPGKGLEWVSWIEAPGVQTFYADSVRGRFTISRDNSKNTLYLQMNSLRAEDTAVYYCARSPFGPLYGFDYRGQGTLVTVSS
B5: 1h-239-857 (other)
VL: DIQMTQSPSSLSASVGDRVTITCRASQSIYPFLEWYQQKPGKAPKLLIYFTSRLAAGVPSRFSGSGSGTDFTLTISSLQPEDFATYYCLQNVTNPAAFSQGTKVEIKR
B6: 1h-239-870 (other)
VL: DIQMTQSPSSLSASVGDRVTITCRASQSIYPFLEWYQQKPGKAPKLLIYFTSRLQSGVPSRFSGSGSGTDFTLTISSLQPEDFATYYCLQNVMMPATFSQGTKVEIKR
B7: 1h-239-869 (other)
VL: DIQMTQSPSSLSASVGDRVTITCRASQSIYPFLEWYQQKPGKAPKLLIYFTSRLQSGVPSRFSGSGSGTDFTLTISSLQPEDFATYYCLQNVQMPATFSQGTKVEIKR
B8: 1h-239-871 (other)
VL: DIQMTQSPSSLSASVGDRVTITCRASQSIYPFLEWYQQKPGKAPKLLIYFTSRLQSGVPSRFSGSGSGTDFTLTISSLQPEDFATYYCLQNVANPATFSQGTKVEIKR
B9: 1h-239-9 (other)
VL: DIQMTQSPSSLSASVGDRVTITCRASQSIYPFLEWYQQKPGKAPKLLIYFTSRLQSGVPSRFSGSGSGTDFTLTISSLQPEDFATYYCLQNVTNPATFGQGTKVEIKR
B10: 1h-239-859 (other)
VL: DIQMTQSPSSLSASVGDRVTITCRASQSIYPFLEWYQQKPGKAPKLLIYFSSMLASGVPSRFSGSGSGTDFTLTISSLQPEDFATYYCLQNVTNPATFSQGTKVEIKR
B11: 1h-37 (other)
VH: EVQLLESGGGLVQPGGSLRLSCAASGFTFGTYKMVWVRQAPGKGLEWVSSIGPGGLDTYYADSVKGRFTISRDNSKNTLYLQMNSLRAEDTAVYYCAKSWMTLPITGFDYRGQGTLVTVSS
B12: 1h-29 (other)
VH: EVQLLESGGGLVQPGGSLRLSCAASGFTFEDYDMNWVRQAPGKGLEWVSHIDRGGTLTYYADSVKGRFTISRDNSKNTLYLQMNSLRAEDTAVYYCAKSTLMGFDYWGQGTLVTVSS
B13: 1h-93 (other)
VH: EVQLLESGGGLVQPGGSLRLSCAASGFTFPLYEMAWVRQAPGKGLEWVSSIMSNGIRTYYADSVKGRFTISRDNSKNTLYLQMNSLRAEDTAVYYCAKRKSSSSRTVFDYWGQGTLVTVSS
B14: 1h-93-204 (other)
VH: EVQLLESGGGLVQPGGSLRLSCAASGFTFYTAEMAWVRQAPGKGLEWVSSIMSNGIRTYYADSVKGRFTISRDNSKNTLYLQMNSLRAEDTAVYYCARRESSSSRTVFDYWGQGTLVTVSS
B15: 1h-93-1 (other)
VH: EVQLLESGGGLVQPGGSLRLSCAASGFTFPLYEMAWVRQAPGKGLEWVSSIMSNGTRTYYADSVKGRFTISRDNSKNTLYLQMNSLRAEDTAVYYCAKRESSSSRTVFDYWGQGTLVTVSS
B16: 1h-93-201 (other)
VH: EVQLLESGGGLVQPGGSLRLSCAASGFTFSVSEMAWVRQAPGKGLEWVSSIMSNGIRTYYADSVKGRFTISRDNSKNTLYLQMNSLRAEDTAVYYCARRESSSSRTVFDYWGQGTLVTVSS
B17: 1h-93-2 (other)
VH: EVQLLESGGGLVQPGGSLRLSCAASGFTFPLYEMAWVRQAPGKGLEWVSSIMSNGIRTYYADSVKGRFTISRDNSKNTLYLQMNSLRAEDTAVYYCAKRESSSSRTVFDYWGQGTLVTVSS
B18: 1h-31 (other)
VL: DIQMTQSPSSLSASVGDRVTITCRASQSIGYSLAWYQQKPGKAPKLLIYWVSSLQSGVPSRFSGSGSGTDFTLTISSLQPEDFATYYCQQTQRTPFTFGQGTKVEIKR
B19: 1h-32 (other)
VL: DIQMTQSPSSLSASVGDRVTITCRASQNIGHGLAWYQQKPGKAPKLLIYWVSLLQSGVPSRFSGSGSGTDFTLTISSLQPEDFATYYCQQTLSKPFTFGQGTKVEIKR
B20: 1h-99 (other)
VH: EVQLLESGGGLVQPGGSLRLSCAASGFTFDSANMTWVRQAPGKGLEWVSWIDDTGTQTYYADSVKGRFTISRDNSKNTLYLQMNSLRAEDTAVYYCAKSPFGPLYGFDYWGQGTLVTVSS
B21: 1h-99-218 (other)
VH: EVQLLESGGGLVQPGGSLRLSCAASGFTFDKSNMSWARQAPGKGLEWVSWIEDTGTQTFYADSVKGRFTISRDNSKNTLYLQMNSLRAEDTAVYYCAKSPFGPLYGFDYRGQGTLVTVSS
B22: 1h-99-203 (other)
VH: EVQLLESGGGLVQPGGSLRLSCAASGFTFYKANMSWARQAPGKGLEWVSWIEDTGTQTFYADSVKGRFTISRDNSKNTLYLQMNSLRAEDTAVYYCAKSPFGPLYGFDYRGQGTLVTVSS
B23: 1h-99-2116 (other)
VH: EVQLLESGGGLVQPGGSLRLSCAASGFTFKDKNMSWVRQAPGKGLEWVSWIEASGVQTFYADSVKGRFTISRDNSKNTLYLQMNSLRAEDTAVYYCAKSPFGPLYGFDYRGQGTLVTVSS
B24: 1h-99-217 (other)
VH: EVQLLESGGGLVQPGGSLRLSCAASGFTFSRSNMSWGRQAPGKGLEWVSWIEDTGTQTFYADSVKGRFTISRDNSKNTLYLQMNSLRAEDTAVYYCAKSPFGPLYGFDYRGQGTLVTVSS
B25: 1h-99-201 (other)
VH: EVQLLESGGGLVQPGGSLRLSCAASGFTFHRWNMSWARQAPGKGLEWVSWIEDTGTQTFYADSVKGRFTISRDNSKNTLYLQMNSLRAEDTAVYYCAKSPFGPLYGFDYRGQGTLVTVSS
B26: 1h-99-1 (other)
VH: EVQLLESGGGLVQPGGSLRLSCAASGFTFDSANMTWVRQAPGKGLEWVSWIEDTGTQTFYADSVRGRFTISRDNFKNTLYLQMNSLRAEDTAVYYCAKSPFGPLYGFDYRGQGTLVTVSS
B27: 1h-30 (other)
VH: EVQLLESGGGLVQPGGSLRLSCAASGFTFAHYHMGWVRQAPGKGLEWVSWIPADGLRTYYADSVKGRFTISRDNSKNTLYLQMNSLRAEDTAVYYCAKYEGAFDYWGQGTLVTVSS
B28: 1h-18-1 (other)
VL: DIQMTQSPSSLSASVGDRVTITCRASQYIGTSLNWYQQKPGKAPKLLTYQASFLQSGVPSRFSGSGSGTDFTLTISSLQPEDFATYYCQQLALRPMTFGQGTKVEIKR
B29: 1h-18-5 (other)
VL: DIQMTQSPSSLSASVGDRVTITCRASQYIGTSLNWYQQKPGKAPKLLTYQASLLQSGVPSRFSGSGSGTDFTLTISSLQPEDFATYYCQQLAMRPMTFGQGTKVEIKW
B30: 1h-18-3 (other)
VL: DIQMTQSPSSLSASVGDRVTITCRASQYIGTSLNWYQQKPGKAPKLLTYRASLLQSGVPSRFSGSGSGTDFTLTISSLQPEDFATYYCQQLALRPMTFGQGTKVEIKR
B31: 1h-18-6 (other)
VL: DIQMTQSPSSLSASVGDRVTITCRASQYIGTSLNWYQQKPGKAPKLLIYQASLLQSGVPSRFSGSGYGTDFTLTISSLQPEDFATYYCQQLALRPMTFGQGTKVEIKR

The experiment has as its target human CD28 (human, UniProt P10747 19-220). Kind of experiment: cell-based or functional assay.
With B1, the “Luciferase assay (EC50)” value came to 3 nM and the “MLR assay (EC50)” value came to 2 nM. As to B2, the “Luciferase assay (EC50)” value stood at 5 nM and the “MLR assay (EC50)” value is 3 nM.

Regarding B3, the “Luciferase assay (EC50)” value turned out to be 4 nM and the “MLR assay (EC50)” value worked out at 2 nM. Take B4: the “Luciferase assay (EC50)” value stood at 3 nM and the “MLR assay (EC50)” value stood at 12 nM.

Consider B5, for which the “Luciferase assay (EC50)” value stood at 3 nM and the “MLR assay (EC50)” value came to 1 nM. Consider B6, for which the “MLR assay (EC50)” value was 3 nM. For B7, the “MLR assay (EC50)” value turned out to be 2 nM. Still for that read-out and setting: then B8, with 3 nM.

For B9, the “Luciferase assay (EC50)” value was 27 nM.

For B10, the “Luciferase assay (EC50)” value turned out to be 5 nM and the “MLR assay (EC50)” value is 4 nM. Take B11: the “MLR assay (EC50)” value stood at 1900 nM. On to B12, for which the “Luciferase assay (EC50)” value is over 7000 nM.

As to B13, the “Luciferase assay (EC50)” value was 2800 nM and the “MLR assay (EC50)” value stood at 3200 nM. The matching figures for B14: 176 nM and 1200 nM. The matching figures for B15: 493 nM and 545 nM.

As for B16, the “Luciferase assay (EC50)” value was found to be 182 nM and the “MLR assay (EC50)” value worked out at 18 nM. On to B17, for which the “Luciferase assay (EC50)” value turned out to be 383 nM and the “MLR assay (EC50)” value is 830 nM.

Turning to B18, the “Luciferase assay (EC50)” value was found to be 800 nM.

For the molecule B19, the “Luciferase assay (EC50)” value turned out to be 4500 nM. In the case of B20, the “MLR assay (EC50)” value is 2200 nM. For B21, the “Luciferase assay (EC50)” value is 10 nM and the “MLR assay (EC50)” value was 12 nM. As to B22, the “Luciferase assay (EC50)” value turned out to be 8 nM and the “MLR assay (EC50)” value turned out to be 10 nM.

Take B23: the “Luciferase assay (EC50)” value was found to be 5 nM and the “MLR assay (EC50)” value is 4 nM. As to B24, the “Luciferase assay (EC50)” value came to 12 nM and the “MLR assay (EC50)” value is 15 nM.

In the case of B25, the “Luciferase assay (EC50)” value amounted to 14 nM and the “MLR assay (EC50)” value amounted to 18 nM. The matching figures for B26: 15 nM and 19 nM. B27: the “Luciferase assay (EC50)” value was found to be 1200 nM. Same read-out and setting: as for B28, the figure is 5400 nM; as for B29, over 7000 nM; as for B30, 1000 nM.

As to B31, the “Luciferase assay (EC50)” value turned out to be 1400 nM.
